The text below walks through data of article PMC8257531.

Series [1] in a line: co-localisation with ARL15-mClover3, SK-RC-39 cells. To be noted: glycan lost; control: wild-type CNNM3-mCherry.
Series [2] in a line: fluorescence imaging, SK-RC-39 cells, ER/Golgi markers. To be noted: glycan lost; control: wild-type CNNM3-mCherry.

B1: CNNM3: N73A (protein)
parent chain: MAAAVAAAGRLGWLFAALCLGNAAGEAAPGPRVLGFCLEEDGAAGAGWVRGGAARDTPDATFLLRLFGPGFANSSWSWVAPEGAGCREEAASPAGEWRALLRLRLRAEAVRPHSALLAVRVEPGGGAAEEAAPPWALGLGAAGLLALAALARGLQLSALALAPAEVQVLRESGSEAERAAARRLEPARRWAGCALGALLLLASLAQAALAVLLYRAAGQRAVPAVLGSAGLVFLVGEVVPAAVSGRWTLALAPRALGLSRLAVLLTLPVALPVGQLLELAARPGRLRERVLELARGGGDPYSDLSKGVLRCRTVEDVLTPLEDCFMLDASTVLDFGVLASIMQSGHTRIPVYEEERSNIVDMLYLKDLAFVDPEDCTPLSTITRFYNHPLHFVFNDTKLDAVLEEFKRGKSHLAIVQKVNNEGEGDPFYEVLGLVTLEDVIEEIIRSEILDESEDYRDTVVKRKPASLMAPLKRKEEFSLFKVSDDEYKVTISPQLLLATQRFLSREVDVFSPLRISEKVLLHLLKHPSVNQEVRFDESNRLATHHYLYQRSQPVDYFILILQGRVEVEIGKEGLKFENGAFTYYGVSALTVPSSVHQSPVSSLQPIRHDLQPDPGDGTHSSAYCPDYTVRALSDLQLIKVTRLQYLNALLATRAQNLPQSPENTDLQVIPGSQTRLLGEKTTTAAGSSHSRPGVPVEGSPGRNPGV
Turning to B1, the results for the localisation_or_trafficking entry in series [1] and in series [2] were “decreases” and “abolishes”, respectively.
